Biological target: Alexa488-labeled H3-H4 dimer (UniProt P84233)
Experiment: fluorescence polarisation; 5 nM Alexa488-labeled H3-H4 dimer with increasing amounts of CAF-1; 25 mM TRIS pH 7.5, 300 mM NaCl, 5% glycerol, 1 mM EDTA, 0.01% NP-40, 0.01% CHAPS, 1 mM DTT

Substance | Kd [nM]
Cac2 (middle subunit of yeast CAF-1), C-terminal His-tag (from UniProt Q04199 1-449) (natural protein) | > 1000
Cac3 (small subunit of yeast CAF-1) (from UniProt P13712 1-422) (natural protein) | 77
full-length (FL) yeast CAF-1 complex (from UniProt Q12495 1-606; Q04199 1-449; P13712 1-422) | 0.3
tCAF-1 (tCac1 233-606 with Cac2 and Cac3) (from UniProt Q12495 233-606; Q04199 1-449; P13712 1-422) (complex) | 0.5
tCAF_Nac (trimeric tCAF-1 with the acidic region of Cac1 replaced by a neutral Gly-Ser-Leu peptide) (from UniProt Q12495 233-606; Q04199 1-449; P13712 1-422) (complex) | 8
tCAF_∆2 (tCAF-1 sub-complex lacking the middle subunit Cac2) (from UniProt Q12495 233-606; P13712 1-422) | 25
tCAF_∆3 (tCAF-1 sub-complex lacking the small subunit Cac3) (from UniProt Q12495 233-606; Q04199 1-449) | 1.3
tCAF_∆ac (trimeric tCAF-1 with the acidic region of Cac1 deleted) (from UniProt Q12495 233-606; Q04199 1-449; P13712 1-422) (complex) | 60

Reference: paper PMC5394680
